Earlier results on two substances are cited in publication PMC8335159.

Data set [1] deals with VWF peptide 1660-1668 (Homo sapiens) (UniProt P04275).
In data set [2] the target is TIMP-3 cyclic peptide 61-70 (Homo sapiens).
The target in data set [3] is TIMP-3 cyclic peptide 62-68 (Homo sapiens).
The target of data set [4] is TIMP-3 cyclic peptide 60-70 (Homo sapiens).

By Ki is commonly meant the dissociation constant of the complex between target and ligand, obtained from inhibition or displacement. For the substance ADAMTS-13 (from UniProt Q76LX8), in data set [1], the Ki is 1 µM.

Broadly, the Kd is the concentration at which binding is half-saturated. With ADAM-17 (from UniProt P78536), the figures for the dissociation constant (Kd) in data set [2], in data set [3] and in data set [4] were 3.7 µM, 25 µM and 18 µM, respectively.
